Experiment: yeast display, Sf9 membrane polyspecificity reagent, FACS + sequencing; frameworks hold sequencing errors
In short: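 Using colony PCR, genes from sorted yeast display clones were amplified, then sequenced on MiSeq at 2 × 250 and filtered by CDR length. The clones had been stained with 10% biotinylated, detergent-solubilized Sf9 membrane reagent for 1 hour at 4 °C and sorted by FACS into low and high (top ~1%) gates on anti-HA and streptavidin fluorescence. Polyreactivity labels come from the gate of origin.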

## QVQLVESGGGLVQAGGSLRLICAASGYTFRGNAMGRYRPAPGKERELVAAISGSGTRTYYADSVKGRFTISRDNAKNTVYLQMNSLKPEDTAVYYCNAKSLYHYHSADFDYWGQGTQVTVSS
  polyreactivity (PSR sort gate): high polyreactivity

## QVQLVESGGGLVQAGGSLRISCAASGSTFSSYAMGWYRQAPGKERELVAAISRSGDRTYYADSVKGRFTISRDNAEKTVYFQMNSLKPEDTAFYYCNTVYINRVTNLYDYWGQGTQVTVSS
  polyreactivity (PSR sort gate): high polyreactivity

## QVQLVESGGGLVQAGCSLRLSYAASGLTFRRNPLGWYRQAPGKERELVATITSVGSTNYADSVKGRFTISRDNAKNTVYLQMISLKPEDTAVYYCRTVTYGYWGQGTQVTVSS
  polyreactivity (PSR sort gate): high polyreactivity

## QVQLVESGGGLVQAGGSLRLSCAASGSTFNCYHMGWYRQAPGKEMELVAAITGSGGYTYYADSVKGRFTISRDNAKNTVYLQMKSLNPEETAVYYCAAKKVAGRRFYYWGQGTQVTVSS
  polyreactivity (PSR sort gate): low polyreactivity

## QVQLVESGGGLVQAGGSLRLSCAASGFTFFPYAMGWYRQAPGKERELVATITRGGSTNYADSVKGRFTISRDNAKNSVYLQMNSLKPEDTAVYYCNIDKKTPTFDYWGQGTQVTVSS
  polyreactivity (PSR sort gate): low polyreactivity

## QVQLVESGGGLVQAGGSLRLSCAASGYTFVYNAMGWYRQAPGKERELVAAITWGGAGTYYADSVKGRFTISRDNAKNTVYLQMNSLKPEDTAVYYCAAPSPRSSAYTYRGDYWGQGTQVTVSS
  polyreactivity (PSR sort gate): low polyreactivity

## QVQLQESGGGLVQAGGSLRLSCAASGTISDSGLMGWYRQAPGKERELVAGISSGGITNYADSVKGRFTISRDNAKNKVYLQMNSLKPEDTAVYWGQGTQVTVSS
  polyreactivity (PSR sort gate): low polyreactivity

## QVQLEDSGGGLVQAGGSLRLSCAASVSTFSRNAMGWYRQAPGKEREFVAAISWSGSSTYYADSVKGRFTISRDNAKNTVFLQMNSLKPEDTAVYYCAARETWYPYYWMGYWGQGTQVTVSS
  polyreactivity (PSR sort gate): high polyreactivity

## QLQLEDSAGGLVQAGGSLRLSFAASGFIFDPNAIGWYRQAPAKEREFVAAIRTSGGSTYYADSVKGRFTISRDNAKNTVYLQMNSLKPEDPAVYYCAAKGRYADWSGYGYWGQGTQVTVSS
  polyreactivity (PSR sort gate): high polyreactivity

## QVQLVESGGGLVQAGGSLRLSCAASGRTFSKYAMGWYRQAPGKERELVASITWSGGTTNYADSVKGRFTISRDNAKNTVYLQMNSLKPEDTAVYYCNADGYLAERFFIRLDEYRDYDYWGQGTQVTVSS
  polyreactivity (PSR sort gate): low polyreactivity

## QVQLVESGGGLVQAGGSLRLSCAASGSIFKFYAMGWYRQAPGKERELVAAINYNDINTYYADSVKGRFTISRDNAKNTVYLQMNRLKPEDTAVYYCNAELNVQYLYGYTGEYDYWGQGTQVTVSS
  polyreactivity (PSR sort gate): low polyreactivity

## QVQLVESGVGLVQAGGSLRLSCAASGSTFRYNAMVWYRQAPGKERELVAAITGSGDRTFYADSVKGRFTISRDNAKNTVYLQMNSLKPVDTAVYYCAARSRYPFSYGYYYWGQGTQVSVSS
  polyreactivity (PSR sort gate): high polyreactivity

## QVQLVESGGGLVQAGGSLRLSCAASGSTFKNNAMGWYRQAPGKEREFVASISKRGGSTYYADSEKGRFTISRDNAKNTVYLQMNSLKPEDTAVYYCAAEELRYGLYEYDYWGLGTQVTVSS
  polyreactivity (PSR sort gate): high polyreactivity

## QVQLVESGGGIVQAGGSLRLSCAASGRIISGYVMGWYRQAPGKERELVAAITRSGGSTNYADSVKGRFTISRDNAKNTVYLQMNSLKPEDTAVYYCNAVGRYYRVANGNYDYWGQGTQVTVSS
  polyreactivity (PSR sort gate): high polyreactivity

## QVQLVESGGGLVQAGGSLRLSCAASGITFRRYTMGWYRQPPGKERELVATISLSDGNTYYADSVKGRFTISRDNAKNTVYLQMNSLKPEDTAVYYCNARHTWHQTYDYWGQGTQVTVSS
  polyreactivity (PSR sort gate): low polyreactivity

## QVHLVESGGGLVQAGGSLRLTCAASGRIFAHYAMGWYRQAPGKERELVAAISSGGSTYYADSVKGRFTISRDNAKNTVYLQMNSVKPEDTAVYYCNKRPVRRKYDYWGQGTQVTVSS
  polyreactivity (PSR sort gate): low polyreactivity

## QVQLVESGGGLVQAGGSLRLSCAASGSIFRINTMGWYLQAPGKERELVAAISFSGTRTYYADSVKGRFTISRDNAKNTVYLQMNSLKPEDTAVYYCAAAGRYTYRTLRDYWGQGTQVTVSS
  polyreactivity (PSR sort gate): high polyreactivity

## QVQLVESGGCLVQAGGSLRLSCAASGNTFPYYDMGWYRQAPGKERELVAVIRTGDDTNYADSVKGRFTISRDNAKNTVYLQMNSLKPEDTAVYYCAVVGPKGADGLPPYNRMDYWGHGTQVTVSS
  polyreactivity (PSR sort gate): low polyreactivity

## QVQLVESAGGLVQAGGSLRLICAASGRTTPIYALGWYRQAPGKERELVASITRGTRTNYADSVKGRFTISRDNAKTTVYLQMNSLKPEDTAVYYCAAVSYSYSLNPYDYWGQGTQVTVSS
  polyreactivity (PSR sort gate): low polyreactivity

## QVQLVESGGGLVQAGGSLRLSCAASGRIFDTNAMGWYRQAPGKEREFVAAISRSGGSTYYADSVKGRFTISRDNAKNTVYLQMNSLKPEDTAVYYCAARWYVLQPLGYDASRYGYWGQGTQVTVSS
  polyreactivity (PSR sort gate): high polyreactivity

## QVQLVESGGGLVQAGGSLRLSCAASGFTFTQYGMGWYRQAPGKEREFVATIRFSGDNTYYADSVKGRFTISRDNAKNTVYLQMNSLKPEDTAVYYCNADNRAFFVYPVSKRYDSWGQGTQVTVSS
  polyreactivity (PSR sort gate): low polyreactivity

## QVQLVESGGGLVQAGGSLRLICAASGRTFNWNAMGWYRQAPGKERELVAAITSGGNTYYADSVKGRFTISRDNAKNTVYLQMNSLKPEDTAVYYCAKVTYEGGYRYNYWGQGTQVTVSS
  polyreactivity (PSR sort gate): high polyreactivity

## QVQLVESGGGLVQAGGSLRLSCAASGVIFGPNAMGWYRQAPGKERELVAAIRWSGSRTYYADSVKGRFTISRDNAKNTVYLQMNSLKPEDTAVYYCAATGGLNGALSRLEYWGQGTQVTVSS
  polyreactivity (PSR sort gate): high polyreactivity

## QVQLVESGGGLVQAGGSLRLSCAASGSTFAYNAMGWYRQAPGKERELVAAISWGDGITYYADSVKGRFTISRDNAKNTVYLQMNSLKPEDTEVITRDFGYWGQGTQVTVSS
  polyreactivity (PSR sort gate): low polyreactivity

## QVQLVESGGGLVQAGGCLRVSCAASGNICVIYAMGGDRKAPGKERELLAAINWNSGRTYYADSVKGRFTISRDNAKNTVYLQMNSLKPEDTAVYYCAARTWGFGYPEFGYWGQGTQVTVSS
  polyreactivity (PSR sort gate): high polyreactivity

## QVQLVESGGGLVLAGGSLRLSCAASGLILPYYTMGWYREAPGKERELVAAIRRTTGSTFYADSVKGRFTISRDNAKNTVYLQMNSLKPEDTAVYYCNVRRTPYRHWTGGGMDYWGQGTQVTVSS
  polyreactivity (PSR sort gate): high polyreactivity

## QVQLVESGGGLVQAGGSLRLSCAASGSTFPVYAMGWYRQAPGKERELVAAISRAGSTNYADSVKGRFTISRHNAKNTVYLEMNSLKPEDTAVYYCAARGYLWAGEWYVRRDYWGQGTQVTVSS
  polyreactivity (PSR sort gate): high polyreactivity

## QLQLVESGGGLVQAGGRLRLSCAASARILSSYAMGSYRQAPGKERELVARISYSGGRTYYADSVKGRFTISRDNAKNTVYLQMNSLKPEDTAVYYCAAVSRVHFSYSYDYWGQGTEVTVSS
  polyreactivity (PSR sort gate): high polyreactivity

## QVQLVESGGGLVQAGGSLRLSCAASGRIFDWNMGWYRQAPGKERELVAGITFSVDSTYYADSVKGRFTISRDNAKNTVYLQMNSLKPEDTAYWGQGTQVTVSS
  polyreactivity (PSR sort gate): low polyreactivity

## QVQLVESGGGLVQAGGSLRLSCAASGRIIRTYSMGRYRQAPGKERELVAVISRRGGRTYYADSVKGRFTFSRDNAKNTVYVQINSLKPEDTAVYYCNADYSGGGGGYWGQGTLVTVSS
  polyreactivity (PSR sort gate): high polyreactivity

## QVQLVESGGRLVQAGGSLRLISAASGFTFRAYAMGWYRQAPGKERELVAAINISGGSTYYADSVKGRFTISRDNAKKTVYLKMNSLKPEDTAVYYCAADWPEDWYTEYGYWGQGTQVTVSS
  polyreactivity (PSR sort gate): low polyreactivity

## QVQLVESGGGLVQPGCSLRLSCAASGSIFYAYDMGWYRQSPGKERQLVAAISWSGGTTYYADSVKGRFTISRDNAKNTVYLQMNSLIPEDTAVYYCAAREYYTDVHGTRRYDYWGQGTQVTVSS
  polyreactivity (PSR sort gate): low polyreactivity

## QVQLVESGGGLVQAGGSLRLSCAASGSTFYQYAMGWYRQSPGKERELVAAISGISGSTSYADSVKGRFTISRDNAKNTVYLQMNSLKPEDTAVYYCAKGTAPIPYRGRVGTSKSDYWGQGTQVTVSS
  polyreactivity (PSR sort gate): low polyreactivity

## QVQLVESGGGLVQAGGSLRLICAASGSNFWSYAMGWYRQAPGKERELVADITWSGGNTYADSVKGRFTISRDNAMNTVYLQMNSLKPEDTAVYYCAADPAHGTKWYVYPSHDDYWGQGTQVTVSS
  polyreactivity (PSR sort gate): low polyreactivity

## QVQLVESGGGLVQAGRSLRLSCAASGSTFVNYAMGWYRQAPGKERELVAAISRSGGRTYYADSVKGRFTISRDNAKNTVYLQMNSLKPEDTAVYYCAPLLLSPEYGYWGQGTQVTVSS
  polyreactivity (PSR sort gate): high polyreactivity

## QVQLVESGGGLVQAGGSLRLSCAASGSTFEVYAMGWYRQAPGKEREMVAAINSRGTSTYYADSVKGRFTISRDNEKNTVYIQMNSLKPEDTAVDFCAARHVYYSGYDYWGQGTQVTGSS
  polyreactivity (PSR sort gate): low polyreactivity

## QVQLVESGGGLVQAGGSLRLSCAASGLILGYYAMGWYRQAPGKERELVATIRRGASTFYADSVKGRFTISRDNAKNTVYLQLNSLKPEDTAVYYCAADTERSLAGGLYYWGQGTQVNVSS
  polyreactivity (PSR sort gate): low polyreactivity

## QVQLVESGGGLVQAGGSLRLSCAASGRTFNTYAMGWYRQAPGKERELVAAISKRGGSTYYADSVKGRFTISRDNAKNTVYLQMNSLKPEDTAVYYCNAKGNVRMYWGQGTQVTVSS
  polyreactivity (PSR sort gate): high polyreactivity

## QVQLVESGGGLVQAGGSLRLSSAASGYIFTYYTMGCSRQAPGKERELVAAITYSGSRTRYADSVKGRFTISRDNAKNTVYLQMNSLKPEDNAVYYCAAVYRLKSGGEWRDSQFGYWGQGTQVTVSS
  polyreactivity (PSR sort gate): high polyreactivity

## QVQLVESGGGLVQAGGSHRLSCAASGRIFYRYVMGWYRQAPGKERELVAAISRGGGTNYADSVKGRFTISRDNAKNTVYLQMNSLKPEDTAVYYCAARGSPGAGYYWGQGTQVTVSS
  polyreactivity (PSR sort gate): high polyreactivity

## QVQLVESGGGLVQAGGSLRLSCAASGFTFSGYAMGWYRQAPGKERELVASISRRGGSTYYADSVKGRFTISRDNAKNTVYLQMNSLKPEDTAVYYCATLRGRLRFGYDYWGQGTQVTVSS
  polyreactivity (PSR sort gate): high polyreactivity

## QVQLVESGGGLVQAGASLRLSCAASGSILVDNAMGSYRQAPWKERELVARITGSGGSTYYADSVKGRCTISRDNAKNTVYLQMNSLKPEDTAVYYCAARRVNAGWTYGLRGNYWGQGSQVTVSS
  polyreactivity (PSR sort gate): low polyreactivity

## QVQLVESGGGLVQAGGSLRLSCAASGSTFGTYAMGWYRQAPGKERELVATISIGGITYYADSVKGRFTISRDNAKYTVYLQMNSLKPEDTAVYYCAKDVTDPTSRSDPSGDDYWGQGTQVTVSS
  polyreactivity (PSR sort gate): low polyreactivity
